This is an account of results in PMC6135694, “A high-throughput fluorescence polarization assay for discovering inhibitors targeting the DNA-binding domain of signal transducer and activator of transcription 3 (STAT3)”.

This data set deals with STAT3 127-688 (UniProt P40763 127-688). Nature of the data set: competition (fluorescence polarization); competitor vs 20 nM Bodipy-DNA N1, 480 nM protein; 24 hr, 4 C; FP: 20 nM Bodipy-DNA, 480 nM STAT3 127-688, 25 mM Tris pH 8.5 (protein purification and DNA annealing buffer; full assay buffer not in material), NaCl < 200 uM. As to conditions: protein: recombinant, blunt. A general note: Polarisation of emitted light reports the rotation of a fluorescent probe.
Sequence of STAT3 127-688 (P40763 127-688): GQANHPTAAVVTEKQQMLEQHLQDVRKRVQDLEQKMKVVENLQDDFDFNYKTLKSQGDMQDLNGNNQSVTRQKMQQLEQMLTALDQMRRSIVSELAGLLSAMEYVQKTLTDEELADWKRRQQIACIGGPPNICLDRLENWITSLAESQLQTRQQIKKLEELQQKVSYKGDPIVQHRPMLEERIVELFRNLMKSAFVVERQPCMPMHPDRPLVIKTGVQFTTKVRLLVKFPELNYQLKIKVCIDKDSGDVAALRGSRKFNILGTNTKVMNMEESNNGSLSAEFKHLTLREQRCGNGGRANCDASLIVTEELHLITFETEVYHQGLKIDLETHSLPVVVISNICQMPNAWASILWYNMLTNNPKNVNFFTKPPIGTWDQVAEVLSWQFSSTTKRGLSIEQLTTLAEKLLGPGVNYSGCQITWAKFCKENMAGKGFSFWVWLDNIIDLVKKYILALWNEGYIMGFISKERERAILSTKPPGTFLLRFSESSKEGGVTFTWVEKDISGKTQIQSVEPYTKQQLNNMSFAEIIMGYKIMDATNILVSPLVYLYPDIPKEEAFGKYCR

B1: unlabelled consensus DNA 12-mer (dsDNA)
DNA 1: ATTTCCCGTAAA
DNA 2: TTTACGGGAAAT
As usually defined, the IC50 is the concentration needed to halve the response being measured. Turning to B1, the IC50 amounted to 0.3 ± 0.2 µM.

B2: unlabelled non-consensus DNA 12-mer (dsDNA)
DNA 1: GTACCATGGTAC
DNA 2: GTACCATGGTAC
Take B2: under “self-complementary, 2 copies of strand”, the IC50 is 2.3 ± 0.66 µM.
